Measurements taken from the supplement of paper PMC9732359.
± gives the uncertainty stated by the source.

Test: protein stability index of a GFP-peptide fusion (yeast GPS) (PSI 1-4); higher = more stable; sorted into four equal gates, so the index is relative within each strain
Conditions: doa10∆
Method in brief: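 Tiled yeast protein peptides of 17 residues were each joined downstream of GFP, on plasmids that also express Cherry. The pooled library was maintained in yeast, and mid-log cultures in leucine-free medium were sorted into four equal gates on the GFP/Cherry ratio. Plasmids from every gate were amplified by PCR and sequenced on Illumina, with barcodes linking reads to strains. The protein stability index of a peptide is its gate-number-weighted read frequency summed over the gates.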
MNECIADQDMEDEDMVD [ESC2] showed a protein stability index of 3.18 ± 0.072.
MNEMCKKINAKEKLIGW [RPN8] showed a protein stability index of 2.86 ± 0.043.
Sequence MNIKPVQKQTRAGQRTR [RPS2] has a protein stability index of 2.67 ± 0.1.
For MNKIFTIFKSGEIDFIK [YML103C/NUP188], the protein stability index was 2.51 ± 0.091.
With MNLVLNECIEERVPKTQ [SMB1] the protein stability index was 2.3 ± 0.23.
With MNVQDRRRLLGPAAAKP [MTR3] the protein stability index was 3.23 ± 0.11.
With MPGGYFHSEISPDSTVN [YAR002W/NUP60] the protein stability index was 2.56 ± 0.076.
MPLKILLATKQHDSSAN [CSN12] showed a protein stability index of 2.48 ± 0.076.
For MPRLEEIDDFNDIDDLD [SEC65], the protein stability index was 2.71 ± 0.1.
For MQLEEELMKLDGTEYVL [MED6], the protein stability index was 3.26 ± 0.15.
In the case of MQNSKVESVCQKLDILV [SMC4], the protein stability index is reported as 2.26 ± 0.065.
Sequence MQPFDSGHDDLVHDVVY [YGL100W/SEH1] has a protein stability index of 3.23 ± 0.1.
In the case of MRAKWRKKRTRRLKRKR [RPL41A], the protein stability index is reported as 3.47 ± 0.16.
Sequence MSEEGPQVKIREASKDN [RPB3] has a protein stability index of 3.18 ± 0.13.
Work on MSFIFPSYAERQSSDES [YML031W/NDC1] yielded a protein stability index of 2.58 ± 0.051.
In the case of MSGLPPPPPGFEEDSDL [PRP8], the protein stability index is reported as 3.19 ± 0.11.
MSIDEEDKDSESFSEVC [YCG1] gave a protein stability index of 2.71 ± 0.15.
With MSLKKCQEEVSTIEKDM [SMC2] the protein stability index was 2.48 ± 0.1.
MSNVVQARDNSQVFGVA [RPS14A] showed a protein stability index of 1.89 ± 0.06.
MSSQIIDRPKHELSRAE [SMD2] showed a protein stability index of 3.14 ± 0.093.
Work on MSVKPIDNYITNSVRLF [SRP21] yielded a protein stability index of 1.94 ± 0.076.
In the case of MSYVVRILSTLDRELLK [RPT3], the protein stability index is reported as 2.31 ± 0.098.
In the case of MTDIWNTLIPESSLTIS [ECM29], the protein stability index is reported as 2.22 ± 0.064.
MTEHETKDKAKKIREIY [BRR2] showed a protein stability index of 2.6 ± 0.17.
Sequence MTIPHMKYAVSKTSENK [SIR2] has a protein stability index of 3.14 ± 0.12.
For MTTEDPDSNHLSSETGI [SRB4], the protein stability index was 3.15 ± 0.12.
With MVHLYSIVEECDARFDE [RPC17] the protein stability index was 3.04 ± 0.12.
For MVLYKRKPILLPDPKPL [ITC1], the protein stability index was 2.88 ± 0.067.
For MVNSHGIRYIRLKQVFN [NNF1], the protein stability index was 1.46 ± 0.048.
For MVVNGPIPDARNAALRA [SCL1], the protein stability index was 2.38 ± 0.14.
Work on MYNGKDRAQNSYQPMYQ [SSN3] yielded a protein stability index of 3.31 ± 0.21.
In the case of MYQMITMGGNAELELVD [SMC4], the protein stability index is reported as 2.81 ± 0.074.
Sequence NAAPANVTGGKAANFIQ [SWI1] has a protein stability index of 2.52 ± 0.05.
Work on NAARKAEASGEAAEEAE [RPS9B] yielded a protein stability index of 3.81 ± 0.29.
With NAASGSNSNVTNPSSIF [YOR098C/NUP1] the protein stability index was 2.83 ± 0.049.
Work on NAEATKEEFSSAENRDE [CSE2] yielded a protein stability index of 3.14 ± 0.082.
NAGTNDNSFNELTDNMS [MCD1] gave a protein stability index of 3.01 ± 0.082.
For NAIRIGELFLNESWKSS [SRP72], the protein stability index was 3.39 ± 0.14.
With NAKIIDAEVAQFLEQGL [SRP68] the protein stability index was 2.83 ± 0.057.
NALDKLRNNLNSLIEEI [YCG1] showed a protein stability index of 3.22 ± 0.12.
In the case of NASKVISTPIINAVLVN [RPO31], the protein stability index is reported as 1.63 ± 0.11.
Work on NATEVQKESDAKNETNS [ITC1] yielded a protein stability index of 2.67 ± 0.077.
In the case of NCEYEDPPNEGDPFDYK [RPB3], the protein stability index is reported as 3.16 ± 0.13.
With NCKKKKKRKKKNKSAID [RMP1] the protein stability index was 2.57 ± 0.1.
In the case of NDFFDNGDNLYGNDEEV [RPN4], the protein stability index is reported as 1.21 ± 0.2.
With NDFFPGEVVYLRKQKDS [ITC1] the protein stability index was 2.03 ± 0.062.
NDFKKIGRENENENEDD [POP5] showed a protein stability index of 3.22 ± 0.11.
NDHSKSANPKKTTITRV [SWI3] gave a protein stability index of 2.9 ± 0.11.
For NDIKLFVDDTNVYRVTV [PRP8], the protein stability index was 2.58 ± 0.084.
In the case of NDSETHTEDESTKELKF [BRN1], the protein stability index is reported as 3.2 ± 0.17.
